Measured values as given in US20190004063A1.

What was measured:
Assay in all cases: flow cytometry on modified HEK293T cells without CD74
[1] = molecular target: SLA-DQα1*0101 + DQβ1*0303 (pairing 7) on modified HEK293T cells without CD74 (pig)
[2] = molecular target: SLA-DRα*020102 + DRβ1*1001 (pairing 2) on modified HEK293T cells without CD74 (pig)
[3] = molecular target: SLA-DRα*w04 + DRβ1*0403 (pairing 3) on modified HEK293T cells without CD74 (pig)
[4] = molecular target: SLA-DRα*w04 + DQβ1*0303 (pairing 10) on modified HEK293T cells without CD74 (pig)
[5] = molecular target: SLA-DRα*w04 + DRβ1*1001 (pairing 4) on modified HEK293T cells without CD74 (pig)
[6] = molecular target: SLA-DRα*020102 + DQβ1*0303 (pairing 9) on modified HEK293T cells without CD74 (pig)
[7] = molecular target: SLA-DQα1*0101 + DQβ1*0601 (pairing 8) on modified HEK293T cells without CD74 (pig)
[8] = molecular target: SLA-DQα1*0204 + DQβ1*0303 (pairing 5) on modified HEK293T cells without CD74 (pig)
[9] = molecular target: SLA-DQα1*0204 + DQβ1*0601 (pairing 6) on modified HEK293T cells without CD74 (pig)
[10] = molecular target: SLA-DRα*020102 + DRβ1*0403 (pairing 1) on modified HEK293T cells without CD74 (pig)

Measured: background MFI

CerCLIP.1, a monoclonal antibody specific for invariant chain peptides associated with Class II SLA
1000 MFI: all assays above
